Assay results: paper PMC7515722, “Participation of RecJ in the base excision repair pathway of Deinococcus radiodurans”

Molecular target: T1, drRecJ R109A (Deinococcus radiodurans, UniProt D0EM60 1-705, R109A)
T1 sequence: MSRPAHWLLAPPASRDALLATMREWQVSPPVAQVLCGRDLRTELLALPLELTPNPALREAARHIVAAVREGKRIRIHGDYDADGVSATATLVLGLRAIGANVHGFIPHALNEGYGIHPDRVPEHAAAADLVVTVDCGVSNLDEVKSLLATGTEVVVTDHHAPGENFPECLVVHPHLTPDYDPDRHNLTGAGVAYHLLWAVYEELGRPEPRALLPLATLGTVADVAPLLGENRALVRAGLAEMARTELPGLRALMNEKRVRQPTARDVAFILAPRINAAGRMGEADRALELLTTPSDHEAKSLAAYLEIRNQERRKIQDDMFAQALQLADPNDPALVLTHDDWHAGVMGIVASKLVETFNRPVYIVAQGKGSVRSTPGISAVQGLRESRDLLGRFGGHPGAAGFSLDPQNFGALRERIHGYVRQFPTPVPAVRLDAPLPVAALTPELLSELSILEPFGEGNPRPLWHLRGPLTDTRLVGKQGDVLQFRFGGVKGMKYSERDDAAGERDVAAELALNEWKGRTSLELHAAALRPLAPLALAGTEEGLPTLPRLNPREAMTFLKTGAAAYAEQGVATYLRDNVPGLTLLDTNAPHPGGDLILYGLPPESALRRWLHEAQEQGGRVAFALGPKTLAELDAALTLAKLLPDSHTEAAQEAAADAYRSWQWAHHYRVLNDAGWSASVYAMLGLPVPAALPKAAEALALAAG
Assay: EMSA; no Mn2+ added; EMSA: 10 nM 3'-6-FAM ssDNA, 50 mM Tris-HCl pH 7.5, 150 mM KCl, 0.1 mg/ml BSA, 1 mM DTT, 5% glycerol, 20 min at 30 C; 8% native PAGE in TBE; Hill fit
Settings: protein: recombinant; tags: tag removed with TEV; label: 3'-6-FAM

AAAAAAAAAAAAAAAAAAAA (ssDNA, 5'-P-dSpacer (tetrahydrofuran abasic, 5'-dRP mimic) added before A1) [KY11, 5'-P-dSpacer-(dA)20]
binding signal: 2 fold reduction
